Results as given in the Immune Epitope Database (IEDB).

Key:
Conditions in all cases: source organism: Lyssavirus rabies
HLA-B*14:02 = test: IEDB peptide-MHC binding, purified MHC/competitive/fluorescence; filed as Kd, often an IC50 or EC50 that approximates it; ≥ and ≤ were set here for values at or beyond the usual limits of such assays
HLA-A*66:01 = test: as above
HLA-B*58:01 = test: as above
HLA-B*27:05 = test: as above
HLA-A*02:06 = test: IEDB peptide-MHC binding, purified MHC/direct/fluorescence; filed as Kd, often an IC50 or EC50 that approximates it; ≥ and ≤ were set here for values at or beyond the usual limits of such assays
HLA-B*51:01 = test: as above
HLA-A*23:01 = test: as above
HLA-A*02:12 = test: as above
HLA-B*15:17 = test: as above
HLA-A*02:01 = test: as above
HLA-A*69:01 = test: as above
HLA-A*02:03 = test: as above
HLA-A*29:02 = test: as above
HLA-A*02:19 = test: as above
HLA-A*24:03 = test: as above
HLA-B*27:03 = test: as above
HLA-C*03:03 = test: as above
HLA-A*02:11 = test: as above
HLA-A*26:01 = test: as above
HLA-B*46:01 = test: as above
HLA-B*39:01 = test: as above
HLA-B*18:01 = test: as above
HLA-B*15:01 = test: as above
HLA-A*03:01 = test: as above
HLA-B*57:01 = test: as above

## YLDNVGVHI
HLA-B*14:02
  Kd: ≥ 5 µM
HLA-A*66:01
  Kd: ≥ 5 µM
HLA-B*58:01
  Kd: ≥ 5 µM
HLA-B*27:05
  Kd: ≥ 5 µM
HLA-A*02:06
  Kd: 0.036 µM
HLA-B*51:01
  Kd: ≥ 20 µM
HLA-A*23:01
  Kd: ≥ 20 µM
HLA-A*02:12
  Kd: 0.007 µM
HLA-B*15:17
  Kd: ≥ 20 µM
HLA-A*02:01
  Kd: ≥ 20 µM
HLA-A*69:01
  Kd: ≥ 20 µM
HLA-A*02:03
  Kd: ≥ 20 µM
HLA-A*29:02
  Kd: ≥ 20 µM
HLA-A*02:19
  Kd: ≥ 20 µM
HLA-A*24:03
  Kd: ≥ 20 µM
HLA-B*27:03
  Kd: ≥ 20 µM
HLA-C*03:03
  Kd: ≥ 20 µM
HLA-A*02:11
  Kd: ≥ 20 µM
HLA-A*26:01
  Kd: ≥ 20 µM
HLA-B*46:01
  Kd: ≥ 20 µM
HLA-B*39:01
  Kd: ≥ 20 µM
HLA-B*18:01
  Kd: ≥ 20 µM
HLA-B*15:01
  Kd: ≥ 20 µM
HLA-A*03:01
  Kd: ≥ 20 µM
HLA-B*57:01
  Kd: ≥ 20 µM
